B1: BCCP2 AW box2 (-143/-115) (dsDNA)
DNA 1: CCTACTTCCTCGGTTTCATCGTCCACTG
DNA 2: CAGTGGACGATGAAACCGAGGAAGTAGG
B2: BADC3m3 (dsDNA)
DNA 1: GTTGTGTCCTCGTTTACATCGTTATCGT
DNA 2: ACGATAACGATGTAAACGAGGACACAAC
B3: Neg.C (dsDNA)
DNA 1: TGTTACAATCTAGTTACTATTCAGGGTA
DNA 2: TACCCTGAATAGTAACTAGATTGTAACA
B4: BADC2m3 (dsDNA)
DNA 1: TCGTCTTCCTCGTTCACATCGTTCACTC
DNA 2: GAGTGAACGATGTGAACGAGGAAGACGA
B5: BADC3 AW box (-94/-67) (dsDNA)
DNA 1: GTTGTGTCCTCGTTCATATCGTTATCGT
DNA 2: ACGATAACGATATGAACGAGGACACAAC
B6: BADC1 AW box (-169/-142) (dsDNA)
DNA 1: CCTTCTTCTTTGGTAACTCCGTCCGCCG
DNA 2: CGGCGGACGGAGTTACCAAAGAAGAAGG
B7: BADC1m3 (dsDNA)
DNA 1: CCTTCTTCTTTGGTGCCTCCGTCCGCCG
DNA 2: CGGCGGACGGAGGCACCAAAGAAGAAGG
B8: BCCP2 AW box1 (-36/-8) (dsDNA)
DNA 1: TGGGTTTCTTCGTAAGCATCGAAATCAG
DNA 2: CTGATTTCGATGCTTACGAAGAAACCCA
B9: BADC2 AW box (-102/-75) (dsDNA)
DNA 1: TCGTCTTCCTCGTTCGTATCGTTCACTC
DNA 2: GAGTGAACGATACGAACGAGGAAGACGA
B10: BCCP1 AW box (-67/-40) (dsDNA)
DNA 1: TTGTGCTCTTTGGTTTCATCGAGAGAGA
DNA 2: TCTCTCTCGATGAAACCAAAGAGCACAA

These binders were tested against GFP-WRI1(58-240), WRINKLED1 DNA-binding domain (UniProt Q6X5Y6 58-240) (assay: MST).
Chain of GFP-WRI1(58-240), WRINKLED1 DNA-binding domain (Q6X5Y6 58-240): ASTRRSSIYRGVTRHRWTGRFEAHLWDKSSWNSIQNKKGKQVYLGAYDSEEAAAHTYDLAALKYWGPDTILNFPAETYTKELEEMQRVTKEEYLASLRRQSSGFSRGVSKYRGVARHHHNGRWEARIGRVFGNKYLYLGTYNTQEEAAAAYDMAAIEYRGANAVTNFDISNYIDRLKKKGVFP
In the case of B1, the Kd is reported as 6.68 ± 0.94 nM. Work on B2 yielded a Kd of 22.9 ± 2.94 nM. B3: no binding. Work on B4 yielded a Kd of 149 ± 139 nM. For B5, the Kd was 5.24 ± 2.59 nM. B6 showed a Kd of 0.27 ± 0.27 nM. For B7, the Kd was 70.7 ± 27.8 nM. B8 gave a Kd of 0.65 ± 0.39 nM. In the case of B9, the Kd is reported as 2.73 ± 0.72 nM. Work on B10 yielded a Kd of 23.9 ± 4.42 nM.

— article doi:10.1101/634550
